{"source": "patent US20200323888A1", "about": "“INHIBITORS” (VESTLANDETS INNOVASJONSSELSKAP AS, priority 2017, published 2020)", "note": "Square brackets hold non-standard residues; d marks the D form. Ends that are not written are not given here. Nle = CCCC[C@H](N)C(=O)O; CoA = coenzyme A"}
{"target": "T1, MBP-HishNAA80 fusion protein (MBP-Naa80) (human, UniProt Q93015-2 1-308)", "T1 sequence (looked up)": "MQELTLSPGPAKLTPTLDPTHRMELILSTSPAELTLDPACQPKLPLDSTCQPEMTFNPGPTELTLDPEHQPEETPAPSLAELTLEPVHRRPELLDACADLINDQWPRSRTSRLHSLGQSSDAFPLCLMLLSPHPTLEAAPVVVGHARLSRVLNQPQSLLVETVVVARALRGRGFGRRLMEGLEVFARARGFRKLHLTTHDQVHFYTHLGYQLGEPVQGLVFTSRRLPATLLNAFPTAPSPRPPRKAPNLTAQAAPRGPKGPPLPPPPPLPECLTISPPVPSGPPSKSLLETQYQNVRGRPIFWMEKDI", "assay": "cell-based or functional assay", "units": {"IC50 (µM), Nt-acetylation inhibition": "µM"}}
{"binder": "{CoA-Ac}-EEEI-NH2", "note": "[CoA-Ac-EEEI-NH2]", "IC50 (µM), Nt-acetylation inhibition": 1.16}
{"binder": "{CoA-Ac}-MDEL-NH2", "note": "[CoA-Ac-MDEL-NH2]", "IC50 (µM), Nt-acetylation inhibition": 1.26}
{"binder": "{CoA-Ac}-PDEL-NH2", "note": "[PDEL (Naa80 bisubstrate analogue inhibitor)]", "IC50 (µM), Nt-acetylation inhibition": 13.4}
{"binder": "{CoA-Ac}-DEDI-NH2", "note": "[DEDI (Naa80 bisubstrate analogue inhibitor)]", "IC50 (µM), Nt-acetylation inhibition": 3.12}
{"binder": "{CoA-Ac}-DEEL-NH2", "note": "[DEEL (Naa80 bisubstrate analogue inhibitor)]", "IC50 (µM), Nt-acetylation inhibition": 4.73}
{"binder": "{CoA-Ac}-EDDI-NH2", "note": "[EDDI (Naa80 bisubstrate analogue inhibitor)]", "IC50 (µM), Nt-acetylation inhibition": 0.12}
{"binder": "{CoA-Ac}-EDEI-NH2", "note": "[EDEI (Naa80 bisubstrate analogue inhibitor)]", "IC50 (µM), Nt-acetylation inhibition": 0.76}
{"binder": "{CoA-Ac}-EEDL-NH2", "note": "[EEDL (Naa80 bisubstrate analogue inhibitor)]", "IC50 (µM), Nt-acetylation inhibition": 1.76}
{"binder": "{CoA-Ac}-EEEL-NH2", "note": "[EEEL (Naa80 bisubstrate analogue inhibitor)]", "IC50 (µM), Nt-acetylation inhibition": 1.16}
{"binder": "{CoA-Ac}-DDEI-NH2", "note": "[DDEI (Naa80 bisubstrate analogue inhibitor)]", "IC50 (µM), Nt-acetylation inhibition": 2.67}
{"binder": "{CoA-Ac}-EDQL-NH2", "note": "[EDQL (Naa80 bisubstrate analogue inhibitor)]", "IC50 (µM), Nt-acetylation inhibition": 0.85}
{"binder": "{CoA-Ac}-ESEL-NH2", "note": "[ESEL (Naa80 bisubstrate analogue inhibitor)]", "IC50 (µM), Nt-acetylation inhibition": 11.5}
{"binder": "{CoA-Ac}-DEEI-NH2", "note": "[DEEI (Naa80 bisubstrate analogue inhibitor)]", "IC50 (µM), Nt-acetylation inhibition": 1.22}
{"binder": "{CoA-Ac}-EEDI-NH2", "note": "[EEDI (Naa80 bisubstrate analogue inhibitor)]", "IC50 (µM), Nt-acetylation inhibition": 0.17}
{"binder": "{CoA-Ac}-EDEL-NH2", "note": "[EDEL (Naa80 bisubstrate analogue inhibitor)]", "IC50 (µM), Nt-acetylation inhibition": 0.15}
{"binder": "{CoA-Ac}-QEEI-NH2", "note": "[QEEI (Naa80 bisubstrate analogue inhibitor)]", "IC50 (µM), Nt-acetylation inhibition": 2.23}
{"target": "T1, MBP-HishNAA80 fusion protein (MBP-Naa80)", "assay": "cell-based or functional assay", "remark": "another data set of the same source", "units": {"Product formation": "µM"}}
{"binder": "EEEIAALRWGRPVGRRRRPVRVYP", "note": "[EEEI24]", "Product formation": 42.4}
{"binder": "MLGPEGGRWGRPVGRRRRPVRVYP", "note": "[MLGP24]", "Product formation": 2.06}
{"binder": "MDELFPLRWGRPVGRRRRPVRVYP", "note": "[MDEL24]", "Product formation": 119}
{"binder": "MKKSYSGRWGRPVGRRRRPVRVYP", "note": "[MKKS24]", "Product formation": 3.37}
{"binder": "DDDIAALRWGRPVGRRRRPVRVYP", "note": "[DDDI24]", "Product formation": 50.5}
{"binder": "SESSSKSRWGRPVGRRRRPVRVYP", "note": "[SESS24]", "Product formation": 1.14}
{"binder": "MTNKSSLRWGRPVGRRRRPVRVYP", "note": "[MTNK24]", "Product formation": -4.25}
{"binder": "AVFADLDRWGRPVGRRRRPVRVYP", "note": "[AVFA24]", "Product formation": -0.96}
{"binder": "MAPLDLDRWGRPVGRRRRPVRVYP", "note": "[MAPL24]", "Product formation": 2.28}
{"binder": "MELLSPPRWGRPVGRRRRPVRVYP", "note": "[MELL24]", "Product formation": 2.15}
{"target": "T2, NatA complex (Naa15-Naa10) (human, UniProt P41227 1-235; Q9BXJ9 1-866)", "T2 sequence (looked up) 1": "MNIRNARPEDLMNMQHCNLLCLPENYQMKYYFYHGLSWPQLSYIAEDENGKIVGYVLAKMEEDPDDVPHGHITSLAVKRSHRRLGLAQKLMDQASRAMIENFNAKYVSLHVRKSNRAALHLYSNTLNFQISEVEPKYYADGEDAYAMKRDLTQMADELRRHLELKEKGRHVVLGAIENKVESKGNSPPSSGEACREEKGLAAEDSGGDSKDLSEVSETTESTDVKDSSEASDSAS", "T2 sequence (looked up) 2": "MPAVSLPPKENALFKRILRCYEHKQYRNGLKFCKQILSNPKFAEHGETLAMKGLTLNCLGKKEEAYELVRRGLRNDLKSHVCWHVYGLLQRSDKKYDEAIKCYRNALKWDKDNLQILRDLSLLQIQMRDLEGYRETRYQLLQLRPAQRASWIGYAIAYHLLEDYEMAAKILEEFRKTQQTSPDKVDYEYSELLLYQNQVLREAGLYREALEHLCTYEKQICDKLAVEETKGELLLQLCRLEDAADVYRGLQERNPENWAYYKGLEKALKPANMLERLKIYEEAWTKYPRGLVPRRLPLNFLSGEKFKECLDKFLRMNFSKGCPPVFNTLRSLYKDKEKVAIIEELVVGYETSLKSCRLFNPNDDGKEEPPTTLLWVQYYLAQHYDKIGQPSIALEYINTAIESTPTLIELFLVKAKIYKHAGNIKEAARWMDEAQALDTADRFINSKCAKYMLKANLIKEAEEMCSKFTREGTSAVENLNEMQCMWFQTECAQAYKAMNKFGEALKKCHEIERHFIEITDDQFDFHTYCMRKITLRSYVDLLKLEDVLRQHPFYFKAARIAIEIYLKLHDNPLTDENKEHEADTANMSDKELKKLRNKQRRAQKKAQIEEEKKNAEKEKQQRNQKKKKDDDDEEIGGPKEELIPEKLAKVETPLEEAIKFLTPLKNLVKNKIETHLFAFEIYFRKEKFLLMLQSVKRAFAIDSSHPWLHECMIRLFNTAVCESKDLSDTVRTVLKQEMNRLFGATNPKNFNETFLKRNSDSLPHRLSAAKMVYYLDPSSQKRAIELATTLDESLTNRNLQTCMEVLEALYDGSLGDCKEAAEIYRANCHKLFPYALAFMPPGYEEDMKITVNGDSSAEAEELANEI", "assay": "cell-based or functional assay", "units": {"IC50 (µM), Nt-acetylation inhibition": "µM"}}
{"binder": "{CoA-Ac}-SESS-NH2", "note": "[CoA-Ac-SESS]", "IC50 (µM), Nt-acetylation inhibition": 15.4}
{"binder": "{CoA-Ac}-SSMP-NH2", "note": "[CoA-Ac-SSMP]", "IC50 (µM), Nt-acetylation inhibition": 0.82}
{"binder": "{CoA-Ac}-SSMPV-NH2", "note": "[CoA-Ac-SSMPV]", "IC50 (µM), Nt-acetylation inhibition": 2.1}
{"binder": "{CoA-Ac}-PS[Nle]P (not fully specified (C-terminus); printed as CoA-Ac-PS(Nle)P)", "note": "[CoA-Ac-PS(Nle)P]", "IC50 (µM), Nt-acetylation inhibition": "> 1000"}
{"binder": "{CoA-Ac}-SASE-NH2", "note": "[CoA-Ac-SASE]", "IC50 (µM), Nt-acetylation inhibition": 62.4}
{"binder": "{CoA-Ac}-AASE-NH2", "note": "[CoA-Ac-AASE]", "IC50 (µM), Nt-acetylation inhibition": 247}
{"binder": "{CoA-Ac}-SSSE-NH2", "note": "[CoA-Ac-SSSE]", "IC50 (µM), Nt-acetylation inhibition": 9.47}
{"binder": "{CoA-Ac}-SAAE-NH2", "note": "[CoA-Ac-SAAE]", "IC50 (µM), Nt-acetylation inhibition": 12.1}
{"binder": "{CoA-Ac}-SSAE-NH2", "note": "[CoA-Ac-SSAE]", "IC50 (µM), Nt-acetylation inhibition": 4.7}
{"binder": "{CoA-Ac}-SYAE-NH2", "note": "[CoA-Ac-SYAE]", "IC50 (µM), Nt-acetylation inhibition": 36.2}
{"binder": "{CoA-Ac}-SSAA-NH2", "note": "[CoA-Ac-SSAA]", "IC50 (µM), Nt-acetylation inhibition": 5.3}
{"binder": "{CoA-Ac}-SSME-NH2", "note": "[CoA-Ac-SSME]", "IC50 (µM), Nt-acetylation inhibition": 1.28}
